Results published in patent US20220324939A1 (Regeneron, published 2022).

T1: MAGE-A4 peptide on HLA-A*02:01 (human)
T1 peptide: KVLEHVVRV


Assays:
[1] = target: T1, MAGE-A4 peptide on HLA-A*02:01; assay: multimer staining
[2] = target: T2, soluble HLA-A2 (…) tetramer (human); assay: flow cytometry, HLA-A2 (…) tetramer staining of CHO cells transfected with the TCR
T2 construct: Bought tetramer reagent; also called MAGE-A4/HLA tetramer reagent; HLA-A02:01 MAGE-A4 tetramer
Experimental: Samples were then analyzed on an LSRFortessa X-20 (BD Biosciences, San Jose, Calif.).

Binder	binding result [1]	% in Ag+ gate >250 MFI, >1% [2] [%]
PN41568 (TCR, V domains shown, stained with anti-mouse TCR constant region H57-597; full-length chains on transfected CHO cells; also called TCR No. 14) V domain 1: AQTVTQSQPEMSVQEAETVTLSCTYDTSESDYYLFWYKQPPSRQMILVIRQEAYKQQNATENRFSVNFQKAAKSFSLKISDSQLGDAAMYFCAYRSARGNQFYFGTGTSLTVIP V domain 2: DVKVTQSSRYLVKRTGEKVFLECVQDMDHENMFWYRQDPGLGLRLIYFSYDVKMKEKGDIPEGYSVSREKKERFSLILESASTNQTSMYLCASSLWGTNEKLFFGSGTQLSVL	recognises	82.9
PN41573 (TCR, V domains shown, stained with anti-mouse TCR constant region H57-597; full-length chains on transfected CHO cells; also called TCR No. 15) V domain 1: AQTVTQSQPEMSVQEAETVTLSCTYDTSESDYYLFWYKQPPSRQMILVIRQEAYKQQNATENRFSVNFQKAAKSFSLKISDSQLGDAAMYFCAYRSATGNQFYFGTGTSLTVIP V domain 2: DVKVTQSSRYLVKRTGEKVFLECVQDMDHENMFWYRQDPGLGLRLIYFSYDVKMKEKGDIPEGYSVSREKKERFSLILESASTNQTSMYLCASSLWGTNEKLFFGSGTQLSVL	recognises	85.7
PN41577 (TCR, V domains shown, stained with anti-mouse TCR constant region H57-597; full-length chains on transfected CHO cells; also called TCR No. 16) V domain 1: AQTVTQSQPEMSVQEAETVTLSCTYDTSESDYYLFWYKQPPSRQMILVIRQEAYKQQNATENRFSVNFQKAAKSFSLKISDSQLGDAAMYFCAYRSAPGNQFYFGTGTSLTVIP V domain 2: DVKVTQSSRYLVKRTGEKVFLECVQDMDHENMFWYRQDPGLGLRLIYFSYDVKMKEKGDIPEGYSVSREKKERFSLILESASTNQTSMYLCASSLWGTNEKLFFGSGTQLSVL	recognises	80
PN41607 (TCR, V domains shown, stained with anti-mouse TCR constant region H57-597; full-length chains on transfected CHO cells; also called TCR No. 17) V domain 1: AQTVTQSQPEMSVQEAETVTLSCTYDTSESDYYLFWYKQPPSRQMILVIRQEAYKQQNATENRFSVNFQKAAKSFSLKISDSQLGDAAMYFCAYRSASGNQFYFGTGTSLTVIP V domain 2: DVKVTQSSRYLVKRTGEKVFLECVQDMDHENMFWYRQDPGLGLRLIYFSYDVKMKEKGDIPEGYSVSREKKERFSLILESASTNQTSMYLCASSLWGTNEKLFFGSGTQLSVL	recognises	81
PN41608 (TCR, V domains shown, stained with anti-mouse TCR constant region H57-597; full-length chains on transfected CHO cells; also called TCR No. 18) V domain 1: AQTVTQSQPEMSVQEAETVTLSCTYDTSESDYYLFWYKQPPSRQMILVIRQEAYKQQNATENRFSVNFQKAAKSFSLKISDSQLGDAAMYFCAYRSAPGNQFYFGTGTSLTVIP V domain 2: DVKVTQSSRYLVKRTGEKVFLECVQDMDHENMFWYRQDPGLGLRLIYFSYDVKMKEKGDIPEGYSVSREKKERFSLILESASTNQTSMYLCASSFWGWNTEAFFGQGTRLTVV	recognises	77
PN41617 (TCR, V domains shown, stained with anti-mouse TCR constant region H57-597; full-length chains on transfected CHO cells; also called TCR No. 20) V domain 1: AQTVTQSQPEMSVQEAETVTLSCTYDTSESDYYLFWYKQPPSRQMILVIRQEAYKQQNATENRFSVNFQKAAKSFSLKISDSQLGDAAMYFCAYRSASGNQFYFGTGTSLTVIP V domain 2: DVKVTQSSRYLVKRTGEKVFLECVQDMDHENMFWYRQDPGLGLRLIYFSYDVKMKEKGDIPEGYSVSREKKERFSLILESASTNQTSMYLCASSLWGMNTEAFFGQGTRLTVV	recognises	90.6
PN41690 (TCR, V domains shown, stained with anti-mouse TCR constant region H57-597; full-length chains on transfected CHO cells; also called TCR No. 24) V domain 1: AQTVTQSQPEMSVQEAETVTLSCTYDTSESDYYLFWYKQPPSRQMILVIRQEAYKQQNATENRFSVNFQKAAKSFSLKISDSQLGDAAMYFCAYRSAIGNQFYFGTGTSLTVIP V domain 2: DVKVTQSSRYLVKRTGEKVFLECVQDMDHENMFWYRQDPGLGLRLIYFSYDVKMKEKGDIPEGYSVSREKKERFSLILESASTNQTSMYLCASSLWGVNTEAFFGQGTRLTVV	recognises	75.3
PN41702 (TCR, V domains shown, stained with anti-mouse TCR constant region H57-597; full-length chains on transfected CHO cells; also called TCR No. 25) V domain 1: AQTVTQSQPEMSVQEAETVTLSCTYDTSESDYYLFWYKQPPSRQMILVIRQEAYKQQNATENRFSVNFQKAAKSFSLKISDSQLGDAAMYFCAYRSATGNQFYFGTGTSLTVIP V domain 2: DVKVTQSSRYLVKRTGEKVFLECVQDMDHENMFWYRQDPGLGLRLIYFSYDVKMKEKGDIPEGYSVSREKKERFSLILESASTNQTSMYLCASSLWAVNEKLFFGSGTQLSVL	recognises	8.13
PN41822 (TCR, V domains shown, stained with anti-mouse TCR constant region H57-597; full-length chains on transfected CHO cells; also called TCR No. 32) V domain 1: AQTVTQSQPEMSVQEAETVTLSCTYDTSESDYYLFWYKQPPSRQMILVIRQEAYKQQNATENRFSVNFQKAAKSFSLKISDSQLGDAAMYFCAYRSATGNQFYFGTGTSLTVIP V domain 2: DVKVTQSSRYLVKRTGEKVFLECVQDMDHENMFWYRQDPGLGLRLIYFSYDVKMKEKGDIPEGYSVSREKKERFSLILESASTNQTSMYLCASSLWALNTEAFFGQGTRLTVV	recognises	63.5
PN41829 (TCR, V domains shown, stained with anti-mouse TCR constant region H57-597; full-length chains on transfected CHO cells; also called TCR No. 33) V domain 1: AQTVTQSQPEMSVQEAETVTLSCTYDTSESDYYLFWYKQPPSRQMILVIRQEAYKQQNATENRFSVNFQKAAKSFSLKISDSQLGDAAMYFCAYRSATGNQFYFGTGTSLTVIP V domain 2: DVKVTQSSRYLVKRTGEKVFLECVQDMDHENMFWYRQDPGLGLRLIYFSYDVKMKEKGDIPEGYSVSREKKERFSLILESASTNQTSMYLCASSLFALNTEAFFGQGTRLTVV	recognises	19.5
